These results are taken from patent US20180282808A1 (ADAPTIVE BIOTECHNOLOGIES, published 2018).

The target of assay [1] is WT1 peptide (…; SEQ ID NO: 97) presented on peptide-pulsed T2 cells (UniProt P61769 21-119, limits assumed). As to the kind of experiment: cell-based or functional assay.
Assay [2] addresses WT1 peptide (…; SEQ ID NO: 97) presented on peptide-pulsed T2 cells (UniProt P61769). As to the kind of experiment: cell-based or functional assay. As to conditions: scale: nM.
Assay [3] addresses T1, WT1 (Wilms' tumor antigen-1) peptide on HLA-A*02:01 (human).
T1 peptide: YMLDLQPETT
Nature of the assay: full-length, on cells.

B1: eJH30_WT1C_8 (TCR, V domains shown)
V domain 1: GQQLNQSPQSMFIQEGEDVSMNCTSSSIFNTWLWYKQEPGEGPVLLIALYKAGELTSNGRLTAQFGITRKDSFLNISASIPSDVGIYFCAGRGSQGNLIFGKGTKLSVKP
V domain 2: DTAVSQTPKYLVTQMGNDKSIKCEQNLGHDTMYWYKQDSKKFLKIMFSYNNKELIINETVPNRFSPKSPDKAHLNLHINSLELGDSAVYFCASSHWQETQYFGPGTRLLVLE
On to B1, for which the “EC50 (nM) of functional avidity: CD69 MFI of TCR+ JRT3 cells against WT1-pep concentration pulsed on T2 cells” value in assay [1] is 10.9 nM.

B2: eJH30_WT1C_5 (TCR, V domains shown)
V domain 1: GENVEQHPSTLSVQEGDSAVIKCTYSDSASNYFPWYKQELGKGPQLIIDIRSNVGEKKDQRIAVTLNKTAKHFSLHITETQPEDSAVYFCAAGGRDDKIIFGKGTRLHILP
V domain 2: EPEVTQTPSHQVTQMGQEVILRCVPISNHLYFYWYRQILGQKVEFLVSFYNNEISEKSEIFDDQFSVERPDGSNFTLKIRSTKLEDSAMYFCASSERLGTMAYNSPLHFGNGTRLTVTE
Take B2: the “EC50 (nM) of functional avidity: CD69 MFI of TCR+ JRT3 cells against WT1-pep concentration pulsed on T2 cells” value in assay [1] worked out at 51.9 nM.

B3: eJH64_WT1C_6 (TCR, V domains shown)
Valpha: AQSVAQPEDQVNVAEGNPLTVKCTYSVSGNPYLFWYVQYPNRGLQFLLKYITGDNLVKGSYGFEAEFNKSQTSFHLKKPSALVSDSALYFCAVRDMRYGGATNKLIFGTGTLLAVQP
Vbeta: ETGVTQTPRHLVMGMTNKKSLKCEQHLGHNAMYWYKQSAKKPLELMFVYSLEERVENNSVPSRFSPECPNSSHLFLHLHTLQPEDSALYLCASSQDGLAGAASFNNEQFFGPGTRLTVL
Take B3: the EC50 of functional avidity: CD69 MFI of TCR+ cells against WT1 10mer peptide concentration pulsed on T2 cells in assay [2] stood at 0.7. This molecule displayed an EC50 of peptide in assay [3] of 0.7 nM.
